Data on 6 molecules can be found in patent US20150252099A1 (TRELLIS BIOSCIENCE, published 2015).

Residue numbers refer to the chain shown, from its start. Like-named read-outs stand apart in the source and are kept apart here.

In assay [1] the target is T1, CMV gB protein (strain AD169), purified (human cytomegalovirus (CMV), strain …, UniProt P06473 32-906, limits assumed).
T1 construct: also called recombinant gB protein; purified gB protein
Kind of assay: ForteBio biosensor, antibody coupled to the probe, gB in solution. (In general: BLI is a label-free optical method that tracks binding on a fibre tip over time.)
Description: (§1) In this method, the carboxylic acid groups on Amine Reactive Biosensors were activated with EDC/NHS. […] The gB protein was incubated with the Ab-coated probe and rates of association to and dissociation from the Ab-coated probe were determined by the FortéBio® instrument.

The target in assay [2] is T1, CMV gB protein (strain AD169), purified. Description: told with the gB binding kinetics (ForteBio biosensor); reference mAb 4A2.
Description: as §1
The target is the same in assay [3]. Kind of assay: cell-based or functional assay.
For assay [4] the target is unchanged. Description: ForteBio biosensor, antibody coupled to the probe, gB in solution. The source holds these as a separate data set.
Description: as §1
In assay [5] the target is T2, AD-2 peptide NETIYNTTLKYGDV (human cytomegalovirus (CMV)).
T2 construct: also called peptide AD-2; conserved peptide designated AD-2
T2 peptide: NETIYNTTLKYGDV
Description: ELISA binding assay on the AD-2 peptide. A general note: In an ELISA, binding on a coated surface is turned into a signal by an enzyme label.

T1 sequence (P06473 32-906 limits assumed): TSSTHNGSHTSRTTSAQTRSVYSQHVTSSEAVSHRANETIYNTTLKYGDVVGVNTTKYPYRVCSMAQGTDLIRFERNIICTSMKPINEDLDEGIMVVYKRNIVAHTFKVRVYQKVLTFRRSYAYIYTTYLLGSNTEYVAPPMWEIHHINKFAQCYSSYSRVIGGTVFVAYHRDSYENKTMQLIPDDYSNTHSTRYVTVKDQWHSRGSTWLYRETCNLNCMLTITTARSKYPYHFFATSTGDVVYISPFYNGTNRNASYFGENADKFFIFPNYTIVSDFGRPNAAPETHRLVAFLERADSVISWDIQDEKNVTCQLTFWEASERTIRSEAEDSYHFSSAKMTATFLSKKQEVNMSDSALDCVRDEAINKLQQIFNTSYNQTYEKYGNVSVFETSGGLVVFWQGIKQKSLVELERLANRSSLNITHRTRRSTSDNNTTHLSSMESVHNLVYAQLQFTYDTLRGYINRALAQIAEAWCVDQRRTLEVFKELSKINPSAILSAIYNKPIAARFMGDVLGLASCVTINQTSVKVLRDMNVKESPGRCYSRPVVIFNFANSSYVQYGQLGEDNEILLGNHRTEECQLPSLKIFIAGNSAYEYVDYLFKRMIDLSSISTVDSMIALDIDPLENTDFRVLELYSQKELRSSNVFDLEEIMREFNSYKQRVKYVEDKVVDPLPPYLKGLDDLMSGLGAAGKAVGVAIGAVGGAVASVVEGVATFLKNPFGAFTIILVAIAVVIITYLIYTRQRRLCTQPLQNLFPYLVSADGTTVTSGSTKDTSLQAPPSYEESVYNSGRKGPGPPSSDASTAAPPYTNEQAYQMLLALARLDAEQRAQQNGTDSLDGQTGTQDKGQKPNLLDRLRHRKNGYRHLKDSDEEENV

B1: MAB310 (antibody, V domains shown)
VH: QVQLVQSGGGVVQPGTSLRLSCAASGFMFNTYNMHWVRQAPGKGLEWVAVISNDGTYKYSADSLKGRFSISRDNSKNTLYLHMNSLRPDDTAVYYCARDGRSVGGFSGILDPWGQGTLVTVSS
VL: EIVLTQSPATLSLSPGDRATLSCRASQTVGRYLAWYQQKPGQAPRLLIYDASDRATGISARFSGSGSGTDFTLTISSLEPEDFAVYYCQQRSNWPPLTFGGGTKVEIKR
In assay [1], B1 gave a Kd of 0.8 nM, a dissociation rate constant (koff) of 1.2e-05 s⁻¹ and a kon of 16000 M⁻¹ s⁻¹. For the same molecule, the “fold higher potency than mAb 4A2” value in assay [2] was around 10 fold.

B2: mAb 4A2 (antibody, V domains shown)
VH: QVLLEESGGGVVQPGRSLRLSCAGSGFTFNRHGIHWVRQAPGKGLEWVTVISSDGANQQYAESVKGRFIISRDNSKNTVYLEMNSLRNDDTGVYFCARDGRCEGERCYSGVTDFWGQGTLV
VL: EIVLTQSPATLSLSPGERATLSCRASQNIGGYLAWFQQKAGQAPRLLIYDASIRATGIPARFSGSGSGTDFTLTISSLEPEDFAVYYCQQRNSWPPLTFG
notes: Human mAb
For B2, the “IC50 (µg/mL), neutralizing potency” value in assay [3] turned out to be 0.02 µg/mL. In assay [4], this molecule displayed a Kd of 0.168 nM.

B3: mAb 19B10 (antibody, V domains shown)
VH: QVQLQQSGPGLVKPSQTLSLTCTVSGGSISSGDFCWNWIRQPPGKGLEWIGYICYTGDTYYNPPLNSRVTISVDRSRNQISLRLSSVTAADTAVYYCAREDRRQLHSRPYFYYGLDVWGRGTKVTVSS
VL: EIVMTQSPLSLPVTPGETASISCRSSQSLLHSNGHNYLDWYLQKPGQSPHLLIYLGSIRASGVPDRFSGSGTGTDFTLKISRVEAEDVGVYYCMQALQTPNTFGQGTKLEIRR
notes: Human mAb
Consider B3, for which the “IC50 (µg/mL), neutralizing potency” value in assay [3] was found to be 0.04 µg/mL. Also, the equilibrium dissociation constant (Kd) in assay [4] is 0.697 nM. Besides, the binding result in assay [5] is “no binding”.

B4: MAB313 (antibody, V domains shown)
VH: QVQLVQSGGGVIQPGRSLTLSCAASGFTFSAYSLHWVRQAPGKGLQWVAVISFDGNFKHFADSLRGRFTISRDNSKNRFYLQMNGLRGEDTAVYYCARDGRAVDGFSGILDFWGQGTLVSVSS
VL: EIVMTQSPATLSLSPGERATLSCRASQSVGRYLTWFQQKPGQAPRLLIYDASERATGIPARFSGSGSGTDFTLTISSLEPEDFAVYYCQQRANWPPLTFGGGTKVEIK
Take B4: in assay [1], the affinity, expressed as Kd, was 0.7 nM; the koff worked out at 1.2e-05 s⁻¹; the kon is 17000 M⁻¹ s⁻¹. For the same molecule, the “fold higher potency than mAb 4A2” value in assay [2] was around 10 fold.

B5: MAB345 (antibody, V domains shown)
VH: QVQLVESGGGVVQPGRSLRLSCAASGFTFSDYNMHWVRQAPGKGLEWVAVISIDGTYKYSADSVAGRFSLSRDNSKNTLYLQMNSLRPDDTAIYYCARDGRSVGGFSGILDPWGQGTLVTVSS
VL: B4 VL with E17D, R31S, T34A, F36Y, I48M, A51S, E53V, A92N
notes: also called ATCC PTA-121705
In assay [1], B5 returned a Kd of 2.3 nM, a koff of 3.3e-05 s⁻¹ and a kon of 14000 M⁻¹ s⁻¹.

B6: MAB338 (antibody, V domains shown)
VH: QVQLVESGGGVVQPGRSLRLSCSGSGFTFSDYNLHWVRQAPGKGLEWVAVISIDGTNKHHADSVKGRFTISRDNSKNTVNLEMSRLKAEDTAVYYCVRDGRSIGGYSGIFDPWGQGTLVTVSS
VL: B4 VL with M4L, G30D, T34A, F36Y, E53Q, T74A, F83V, A92S, V105I
For B6, the “fold higher potency than mAb 4A2” value in assay [2] is around 10 fold.

One may read the Kd as the equilibrium constant for the complex coming apart. The term koff denotes a measure of how fast the partners let go of each other. Higher therefore signals a short-lived complex. In general, kon refers to the rate constant with which the complex forms. Higher therefore signals faster complex formation.
